B1: TPR t1 (parent)
chain: GACCAAUCUGCCCUCAGAGCUCGAGAACAUCUUCGGAUGCAGAGGAGGCAGGCUUCGGUGGCGCGAUAGCGCCAACGUCCUCAACCUCCAAUGCAUCCCACCACAUGAUGAUGCCUGAAGAGCCUUGGUUUUUUG

Variants of: B1
Test: polymerase ribozyme fitness, log enrichment relative to wild type (log ratio); higher = more active; in vitro selection for triplet polymerase activity
How it was run: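 Mutant libraries for each subunit of a heterodimeric triplet polymerase ribozyme were made by PCR and then transcribed. Each library underwent one round of in vitro selection in triplicate: annealing with a biotinylated primer, the partner subunit and triplets, frozen incubation at −7 °C, gel excision of extended constructs, streptavidin-bead capture and RT-PCR. Input and output libraries were Illumina-sequenced, and only genotypes with ≥10 input reads and ≥1 read per output were kept. Fitness is the logarithm, base 2, of genotype enrichment over wild-type enrichment, computed from inverse-variance-weighted replicate averages.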

Variant	polymerase ribozyme fitness (log ratio)
GACCAAUCUGCCCUCAGAGCUCGAGAACAUCUUCGGAUGCAGAGGAGGCAGGCUUCGGUGGCGCGAUAGCGCCAACGUCCUCAACCUCCAAUGCAUCUCACCACAGGAUGAUGCCUGAAGAGCCUUGGUUUUGUG [C98U U106G U133G]	-2.9
GACCAAUCUGCCCUCAGAGCUCGAGAACAUCUUCGGAUGCAGAGGAGGCAGGCUUCGGUGGCGCGAUAGCGCCAACGUCCUCAACCUCCAAUGCAUCCCUCCACAUGAUGAUGCCUGAAAAGCCUUCGUUAUUUG [A100U G120A G127C U131A]	-2.13
GACCAAUCUGCCCUCAGAGCUCGAGAACAUCUUCGGAUGCAGAGGAGGCAGGCUUCGGUGGCGCGAUAGCGCCAACGUCCUCAACCUCCAAUGCAUCCUACCACAUGAUGAUGCCUGAAGAGGCUUGGUUUUUUG [C99U C123G]	-1.13
GACCAAUCUGCCCUCAGAGCUCGAGAACAUCUUCGGAUGCAGAGGAGGCAGGCUUCGGUGGCGCGAUAGCGCCAACGUCCUCAACCUCCAAUGCAUCCAACCACAUGAUGAUGCCUGAAGAGCUUUGGUUUUUUG [C99A C124U]	-4.66
GACCAAUCUGCCCUCAGAGCUCGAGAACAUCUUCGGAUGCAGAGGAGGCAGGCUUCGGUGGCGCGAUAGCGCCAACGUCCUCAACCUCCAAUGCAUCCCCCCACAUGAUGAUGCCUGAAGAGACUUGGUUUUUUG [A100C C123A]	-0.801
GACCAAUCUGCCCUCAGAGCUCGAGAACAUCUUCGGAUGCAGAGGAGGCAGGCUUCGGUGGCGCGAUAGCGCCAACGUCCUCAACCUCCAAUGCAUCCUACCACAUGAUGAUGCCUGAAGAUCCUUGGUUUUUUG [C99U G122U]	-3.2
GACCAAUCUGCCCUCAGAGCUCGAGAACAUCUUCGGAUGCAGAGGAGGCAGGCUUCGGUGGCGCGAUAGCGCCAACGUCCUCAACCUCCAAUGCAUCUCACCACAUGAUGAUGCCUGAAGAGCGUUGGUUUUUUG [C98U C124G]	-0.72
GACCAAUCUGCCCUCAGAGCUCGAGAACAUCUUCGGAUGCAGAGGAGGCAGGCUUCGGUGGCGCGAUAGCGCCAACGUCCUCAACCUCCAAUGCAUCACACCACAUGAUGAUGCCUGAAGAGCCUUGGUUUUGUG [C98A U133G]	-6.12
GACCAAUCUGCCCUCAGAGCUCGAGAACAUCUUCGGAUGCAGAGGAGGCAGGCUUCGGUGGCGCGAUAGCGCCAACGUCCUCAACCUCCAAUGCAUCUCACCACAUGAUGAUGCCUGAAGAGCCUUGGGUUUUUG [C98U U129G]	-2.41
GACCAAUCUGCCCUCAGAGCUCGAGAACAUCUUCGGAUGCAGAGGAGGCAGGCUUCGGUGGCGCGAUAGCGCCAACGUCCUCAACCUCCAAUGCAUCUCACCACAUGAUGAUGCCUGAAGAGUCUUGGUUUUUUG [C98U C123U]	-1.28
GACCAAUCUGCCCUCAGAGCUCGAGAACAUCUUCGGAUGCAGAGGAGGCAGGCUUCGGUGGCGCGAUAGCGCCAACGUCCUCAACCUCCAAUGCAUCCAACCACAUGAUGAUGCCUGAAGGGCCUUGGUUUUUUG [C99A A121G]	-4.75
GACCAAUCUGCCCUCAGAGCUCGAGAACAUCUUCGGAUGCAGAGGAGGCAGGCUUCGGUGGCGCGAUAGCGCCAACGUCCUCAACCUCCAAUGCAUCCCCCCACAUGAUGAGGCCAGAAGAGCCUUGGUUUUUUG [A100C U112G U116A]	-4.36
GACCAAUCUGCCCUCAGAGCUCGAGAACAUCUUCGGAUGCAGAGGAGGCAGGCUUCGGUGGCGCGAUAGCGCCAACGUCCUCAACCUCCAAUGCAUCCCCCCACAUGAUGAUGCCUGAAGAGCCUUGGUUUUUUG [A100C]	-0.919
GACCAAUCUGCCCUCAGAGCUCGAGAACAUCUUCGGAUGCAGAGGAGGCAGGCUUCGGUGGCGCGAUAGCGCCAACGUCCUCAACCUCCAAUGCAUCCCUCCACAUGAUGAUGCCUGAAGAGCCUUGGUUUUUUG [A100U]	-0.595
GACCAAUCUGCCCUCAGAGCUCGAGAACAUCUUCGGAUGCAGAGGAGGCAGGCUUCGGUGGCGCGAUAGCGCCAACGUCCUCAACCUCCAAUGCAUCCCGCCACAUGAUGAUGCCUGAAGAGCCUUGGUUUUUUG [A100G]	-2.32
GACCAAUCUGCCCUCAGAGCUCGAGAACAUCUUCGGAUGCAGAGGAGGCAGGCUUCGGUGGCGCGAUAGCGCCAACGUCCUCAACCUCCAAUGCAUCUCACCACAUGAUGAUGCCUGAAGAGCCUUGGUUUUUUC [C98U G135C]	-0.757
GACCAAUCUGCCCUCAGAGCUCGAGAACAUCUUCGGAUGCAGAGGAGGCAGGCUUCGGUGGCGCGAUAGCGCCAACGUCCUCAACCUCCAAUGCAUCCGACCACAUGAUGAUGCCUGAAGUGCCUUGGUUUUUUG [C99G A121U]	-6.54
GACCAAUCUGCCCUCAGAGCUCGAGAACAUCUUCGGAUGCAGAGGAGGCAGGCUUCGGUGGCGCGAUAGCGCCAACGUCCUCAACCUCCAAUGCAUCUCACAACAUGAUGAUGCCUGAAGAGCCUUGGUUUUUUG [C98U C102A]	-5.43
GACCAAUCUGCCCUCAGAGCUCGAGAACAUCUUCGGAUGCAGAGGAGGCAGGCUUCGGUGGCGCGAUAGCGCCAACGUCCUCAACCUCCAAUGCAUCCUACCACAUGAUGAUGCCUGAAGAGCCUUGGUUUAUUG [C99U U132A]	-2.96
GACCAAUCUGCCCUCAGAGCUCGAGAACAUCUUCGGAUGCAGAGGAGGCAGGCUUCGGUGGCGCGAUAGCGCCAACGUCCUCAACCUCCAAUGCAUCCCCCCACAUGAUGAUGCCUGAAGAGCCUUGGUGUUUUG [A100C U130G]	-0.881
GACCAAUCUGCCCUCAGAGCUCGAGAACAUCUUCGGAUGCAGAGGAGGCAGGCUUCGGUGGCGCGAUAGCGCCAACGUCCUCAACCUCCAAUGCAUCCCUCCACAUGAUGAUACCUGAAGAGCCUUGGUUUUUUG [A100U G113A]	-1.88
